Test results published in US7141393 (KABUSHIKI KAISHA HAYASHIBARA SEIBUTSU KAGAKU KENKYUJO, dated 2006).

Target: T1, IL-18R protein on the surface of L428 cell (human, UniProt Q13478 19-541)
T1 construct: whole, on cells; Endogenous receptor on cell lines; also called L428 cells; IL-18R protein on the surface of KG-1 cell
T1 sequence (looked up): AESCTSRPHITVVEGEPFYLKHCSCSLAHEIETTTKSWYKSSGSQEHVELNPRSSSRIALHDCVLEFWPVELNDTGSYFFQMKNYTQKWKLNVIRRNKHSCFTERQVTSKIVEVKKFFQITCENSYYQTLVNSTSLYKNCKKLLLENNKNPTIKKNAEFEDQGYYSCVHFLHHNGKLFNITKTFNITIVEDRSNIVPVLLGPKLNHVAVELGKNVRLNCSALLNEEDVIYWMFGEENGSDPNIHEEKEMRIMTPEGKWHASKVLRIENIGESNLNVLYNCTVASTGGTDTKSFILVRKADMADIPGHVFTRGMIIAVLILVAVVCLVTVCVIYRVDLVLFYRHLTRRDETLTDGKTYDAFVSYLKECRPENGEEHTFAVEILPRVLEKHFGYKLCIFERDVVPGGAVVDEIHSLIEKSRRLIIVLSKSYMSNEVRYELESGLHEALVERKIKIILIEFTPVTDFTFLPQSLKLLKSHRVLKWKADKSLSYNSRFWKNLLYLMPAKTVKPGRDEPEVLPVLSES
Assay: inhibition of 125I-labelled IL-18 binding to L428 cells (FIG. 1 legend)
Protocol: Subsequently, each cell suspension was added with 200 µl mixture solution (volume ratio 1:1) of dibutylphthalate and diocthylphtalate and centrifuged at 10,000 rpm and 20° C. for 5 minutes, followed by collecting the resultant precipitates containing the cells which were then determined for radioactivity using "MODEL ARC-300", a gamma-ray counter commercialized by Aloka Co., Ltd, Tokyo, Japan.
The levels of radioactivity found in "non-specific binding section" and "whole binding section" were put in Formula 1 together with that found in the sample testing section to calculate percent inhibition.

binding result: binds
B1: monoclonal antibody MAb #117-10C (antibody, V domains shown)
VH: EVQLQQSGAELVKPGASVKLSCTTSGFNIKDIYIYWVKQRPEQGLEWVGRIDPANGDTKYGPNFQDKATITADTSSNTAYLQLRSLTSEDTAVYYCARRGNYGAGFGYWGQGTLVTVSA
VL: DIQMTQSPASLSASVGETVTITCRASGNIHNYLAWYQQRQGKSPQILVYNAKTLADGVSSRFSGSGSGTQYSLNINSLQPEDFGTYFCQHFWSTPYTFGGGTKLEIKR
notes: Mouse hybridoma antibody purified from ascites
